Assay in all cases: Biacore
Assay [1] addresses recombinant human SIRPα-His V2 (human, UniProt P78324 31-370).
The target of assay [2] is recombinant human SIRPα-His V8 (human, UniProt P78324 31-370).
Assay [3] has as its target T1, recombinant cyno SIRPα-His (cynomolgus monkey, UniProt A0A2K5VYQ9 31-372).
T1 chain: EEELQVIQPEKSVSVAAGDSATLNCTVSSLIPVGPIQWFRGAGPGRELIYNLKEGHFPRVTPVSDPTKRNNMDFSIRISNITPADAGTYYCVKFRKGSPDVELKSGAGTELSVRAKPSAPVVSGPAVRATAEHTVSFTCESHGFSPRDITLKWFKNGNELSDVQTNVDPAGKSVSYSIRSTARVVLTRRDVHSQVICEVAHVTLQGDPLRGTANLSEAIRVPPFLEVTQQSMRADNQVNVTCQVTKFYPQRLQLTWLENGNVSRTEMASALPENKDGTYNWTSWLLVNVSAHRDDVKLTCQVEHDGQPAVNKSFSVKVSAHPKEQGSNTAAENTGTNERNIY

Chain of recombinant human SIRPα-His V2 (P78324 other isoform, or with tags, fused parts or gaps): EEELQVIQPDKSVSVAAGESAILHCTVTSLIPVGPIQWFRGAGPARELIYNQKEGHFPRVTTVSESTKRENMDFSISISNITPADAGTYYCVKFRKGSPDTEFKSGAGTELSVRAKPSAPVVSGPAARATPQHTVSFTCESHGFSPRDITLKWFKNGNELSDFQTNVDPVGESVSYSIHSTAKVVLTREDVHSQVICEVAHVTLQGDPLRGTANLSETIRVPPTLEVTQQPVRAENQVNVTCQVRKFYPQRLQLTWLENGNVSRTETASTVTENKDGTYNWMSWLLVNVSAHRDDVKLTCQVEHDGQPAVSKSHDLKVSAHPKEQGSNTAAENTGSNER
Chain of recombinant human SIRPα-His V8 (P78324 other isoform, or with tags, fused parts or gaps): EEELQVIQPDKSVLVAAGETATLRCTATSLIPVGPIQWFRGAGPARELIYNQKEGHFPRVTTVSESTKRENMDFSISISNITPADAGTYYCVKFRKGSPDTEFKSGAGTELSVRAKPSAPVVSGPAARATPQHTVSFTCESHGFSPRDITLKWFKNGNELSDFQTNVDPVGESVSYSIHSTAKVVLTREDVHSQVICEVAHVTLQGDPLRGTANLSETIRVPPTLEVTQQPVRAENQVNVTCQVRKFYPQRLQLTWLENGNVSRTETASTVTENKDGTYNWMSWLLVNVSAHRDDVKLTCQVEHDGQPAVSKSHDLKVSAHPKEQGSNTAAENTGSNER

B1: 53.21A9.B11 (antibody, V domains shown)
VH: QVQLQESGPGLVKPSETLSLTCTVSGGSVSSGRYYWSWIRQPPGKGLEWIGYIYYSGSTNYNPSLKSRVTISVDTSKNQFSLKLTSVTAADTAVYYCARAYDWNYFFDYWGQGTLVTVSS
VL: DIVMTQSPLSLPVTPGEPASISCRSSQSLLYSNGYNYLEWYLQKPGQSPQLLIYLGSNRASGVPDRFSGSGSGTDFTLQISRVEAEDVGVYYCMQGLQTPITFGQGTRLEIK
As for B1, the Kd was found to be 67.6 nM in assay [1], 62.3 nM in assay [2] and 116 nM in assay [3].

B2: 56.16A1.H11 (antibody, V domains shown)
VH: EVQLVESGGGLVQPGRSMKLSCAASGFIFTNYDMAWVRQAPTKGLEWVASISYGGSRIYYRDSVKGRFTISRDDAKSTLYLQMDSLRSEDTATYYCTTDYGYNPSYYWYFDFWGPGTMVTVSS
VL: DIQMTQTPSSMPASLGERVTISCRASQGISNYLNWYQQKPDGTIKPLIYYTSNLQSGVPSRFSGSGSGTDYSLTISSLEPEDFAMYYCQQYDSSPYTFGAGTKLELKR
Take B2: the Kd was 0.981 nM in assay [1], 0.337 nM in assay [2] and 1.19 nM in assay [3].

B3: 49.91C2.A9 (antibody, V domains shown)
VH: EVKLLESGGGLVQPGGSLKLSCAASGFDFSRYWMSWVRQAPGKGLEWIGEINPDSSTINYTPSLKDKFIISRDNAKNTLYLQMSKVRSEDTALYYCATSFYGSSYWYFDVWGAGTTVTVSS
VL: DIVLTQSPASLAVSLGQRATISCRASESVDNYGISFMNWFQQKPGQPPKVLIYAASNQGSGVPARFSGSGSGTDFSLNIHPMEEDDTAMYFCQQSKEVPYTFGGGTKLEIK
For the molecule B3, the Kd in assay [1] was 40.2 nM; in assay [2] it was 35 nM.

B4: 49.64D3.A6 (antibody, V domains shown)
VH: EVMLVESGGGLVKPGGSLKLTCAASGFIFSNYAMSWVRQTPEKRLEWVATFSSGGSYTYYQDSVKGRFTVSRDNAKNTLYLQMSSLRSEDTAMYYCARSGWDGWFAYWGQGTLVTVSA
VL: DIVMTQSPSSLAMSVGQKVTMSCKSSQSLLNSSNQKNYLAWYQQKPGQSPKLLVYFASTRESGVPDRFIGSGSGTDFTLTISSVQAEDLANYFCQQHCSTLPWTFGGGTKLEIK
Take B4: the Kd in assay [1] stood at 3.17 nM; in assay [2] it was 2.66 nM; in assay [3], 22.6 nM.

B5: 49.56C11.C1 (antibody, V domains shown)
VH: EVMLVESGGGLVKPGGSLKLTCAASGFTFSNHAMSWVRQTPEKRLEWVATFGSGGSYTYYLDSVKGRFTVSRDNAKNTLYLQMSSLRSEDTAMYYCSRSGWDGWFAYWGQGTLVTVSA
VL: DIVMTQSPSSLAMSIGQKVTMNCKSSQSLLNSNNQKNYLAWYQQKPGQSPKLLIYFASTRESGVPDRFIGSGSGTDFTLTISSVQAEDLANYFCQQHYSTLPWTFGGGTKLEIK
On to B5, for which the Kd in assay [1] came to 3.41 nM; in assay [2], 2.68 nM; in assay [3], 22.3 nM.

B6: 54.69B10.E7 (antibody, V domains shown)
VH: EVQLVESGGGLVQPGGSLRLSCAASGFTFSSYDMHWVRQTTGKGLEWVSVIGIAGDTYYAGSVKGRFTISRENAKSSLYLQMNSLRAGDTAVYYCARGGNWDDAFDIWGQGTMVTVSS
VL: DIQMTQSPSSLSASVGDRVTITCRASQDINNYLAWFQQKPGKAPKSLIYTTSSLQSGVPSKFSGSGSGTDFTLTISSLQPEDFATYYCQQYVSYPYTFGQGTKLEIK
As for B6, the figures for the Kd in assay [1], in assay [2] and in assay [3] were under 0.1 nM, under 0.1 nM and 3.03 nM, respectively.

B7: 54.58C2.B9.A2 (antibody, V domains shown)
VH: EVQLVESGGGLVQPGGSLRLSCAASGFTFSSYDMHWVRQATGKGLEWVSVIGISGDTYYPGSVKGRFTISRENAKNSLYLQMNSLRAGDTAVYYCARGGNWDDAFDIWGQGTMVTVSS
VL: DIQMTQSPSSLSASVGDRVTITCRASQDINNYLAWFQQKPGKAPKSLIYTTSSLQSGVPSKFSGSGSGTDFTLTISSLQPEDFATYYCQQYVSYPYTFGQGTKLEIK
With B7, the Kd in assay [1] was under 0.1 nM; in assay [2] it was under 0.1 nM; in assay [3], 2.65 nM.

B8: 54.8A5.A5 (antibody, V domains shown)
VH: EVQLVESGGDLIQPGGSLRLSCAASGFSFSSYDMHWVRQTTGKGLEWVSAIGTAGDTYYPGSVKGRFTISRENAKNSLYLQMNSLRAGDTAVYYCARGGNWDDAFDIWGQGTVVTVSS
VL: DIQMTQSPSSLSASVGDRVTITCRASQDINNYLAWFQQKPGRAPKSLIFTASRLQSGVPSKFSGSGSGTDFSLTISSLQPEDFATYYCQQYTFYPYTFGQGTKLEIK
For B8, the Kd in assay [1] was determined as 1.13 nM; in assay [2], 1.05 nM; in assay [3], 72.3 nM.

B9: 54.76D9.B6 (antibody, V domains shown)
VH: EVQLVESGGGLVQPGGSLRLSCAASGFTFSSYDMHWVRQATGKGLEWVSVIGISGDTYYPGSVKGRFTISRENAKNSLHLQMNSLRAGDTAVYYCARGGNWDDALDIWGQGTMVTVSS
VL: DIQMTQSPSSLSASVGDRVTITCRASQDINNYLAWFQQKPGKAPKSLIYTTSSLQSGVPSKFSGSGSGTDFTLTISSLQPEDFATYYCQQYVSYPYTFGQGTKLEIK
With B9, the Kd in assay [1] was under 0.1 nM; in assay [2], under 0.1 nM; in assay [3], 3.17 nM.

These data come from patent US20260234283A1 (published 2026).
